The source of these data is IntAct's records for PubMed 26483485.

B1: Cell adhesion molecule CEACAM6 (Homo sapiens), P40199 (parent)
chain: MGPPSAPPCRLHVPWKEVLLTASLLTFWNPPTTAKLTIESTPFNVAEGKEVLLLAHNLPQNRIGYSWYKGERVDGNSLIVGYVIGTQQATPGPAYSGRETIYPNASLLIQNVTQNDTGFYTLQVIKSDLVNEEATGQFHVYPELPKPSISSNNSNPVEDKDAVAFTCEPEVQNTTYLWWVNGQSLPVSPRLQLSNGNMTLTLLSVKRNDAGSYECEIQNPASANRSDPVTLNVLYGPDVPTISPSKANYRPGENLNLSCHAASNPPAQYSWFINGTFQQSTQELFIPNITVNNSGSYMCQAHNSATGLNRTTVTMITVSGSAPVLSAVATVGITIGVLARVALI
B2: Cell adhesion molecule CEACAM8 (Homo sapiens), P31997 (parent)
chain: MGPISAPSCRWRIPWQGLLLTASLFTFWNPPTTAQLTIEAVPSNAAEGKEVLLLVHNLPQDPRGYNWYKGETVDANRRIIGYVISNQQITPGPAYSNRETIYPNASLLMRNVTRNDTGSYTLQVIKLNLMSEEVTGQFSVHPETPKPSISSNNSNPVEDKDAVAFTCEPETQNTTYLWWVNGQSLPVSPRLQLSNGNRTLTLLSVTRNDVGPYECEIQNPASANFSDPVTLNVLYGPDAPTISPSDTYYHAGVNLNLSCHAASNPPSQYSWSVNGTFQQYTQKLFIPNITTKNSGSYACHTTNSATGRNRTTVRMITVSDALVQGSSPGLSARATVSIMIGVLARVALI

Variants of B1 are the subject of one test. Conditions: with ceam8_human CEACAM8, P31997.
On to Q123A, for which the “effect of a mutation on the interaction” value is on record as “with no effect”.
As for L129A, the “effect of a mutation on the interaction” value was “disrupting interaction strength”.
Same read-out and setting: with L78A the entry was “with no effect”; with I63A, “disrupting interaction strength”.

The variants in another test derive from B2. Particulars: with ceam6_human CEACAM6, P40199.
Regarding R77A, the “effect of a mutation on the interaction” value is “disrupting interaction strength”.
Regarding Q123A, the “effect of a mutation on the interaction” value is “with no effect”.
Still for that read-out and setting: with L129A the entry was “disrupting interaction strength”.
